Reference: paper PMC11360484 (Toxins, 2024)

Target: T1, recombinant ecarin (rEcarin), SVMP PIII prothrombin activator from Echis pyramidum leakeyi (Echis pyramidum leakeyi (Kenya; entry …)
T1 construct: also called His10-tagged recombinant ecarin
Assay: BLI; Octet HTX; […]; 30 C; PBS with 0.1% TWEEN 20 and 0.1% BSA; 180 s association, 180 s dissociation; 1:1 model, […]
Settings: both partners purified

T1 sequence (heavy, as listed by the source): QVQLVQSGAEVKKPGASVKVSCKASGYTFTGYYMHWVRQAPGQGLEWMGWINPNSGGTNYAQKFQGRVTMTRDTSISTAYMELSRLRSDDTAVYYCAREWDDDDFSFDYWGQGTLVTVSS

B1: H11 IgG1 (synthetic human antibody against rEcarin) (antibody, V domains shown)
VH: not shown
VL: QSALTQPASVSGSPGQSITISCTGTSSDVGGYNYVSWYQQHPGKAPKLMIYEVSNRPSGVSNRFSGSKSGNTASLTISGLQAEDEADYYCSSYTSSSTLVVFGGGTKLTVL
notes: copies: 2 + 2
- Kd: 87 ± 8 nM
